Assay results reported in the supplement of paper PMC10724198.
± gives the standard deviation of the averaged measurements.

Test system: Saccharomyces cerevisiae
Test: protein stability index of tFT-peptide fusion (C-terminal peptide) (PSI (0-1 scale)); higher = more stable (slower turnover)
Conditions: genetic background: wild type; temperature: 30 C
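Further: PSI is a weighted mean of sequencing reads over stability bins, variants kept only with over 10 reads, mCherry proximal and sfGFP distal, peptide attached via GGGS linker.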

Row | Sequence | protein stability index
1 | WWGFGGVWRCGL | 0.6874 ± 0.0056
2 | FLQRSLTNMNSL | 0.671 ± 0.00095
3 | APLSLPPPPSPH | 0.696 ± 0.033
4 | HLSPPPLPPLTS | 0.696 ± 0.037
5 | PPPSPLPSPPPS | 0.746 ± 0.043
6 | GRAVCRALVEAR | 0.552 ± 0.031
7 | GGGGGGGGVKGV | 0.66 ± 0.02
8 | SSRSQTVRTFAL | 0.689 ± 0.068
9 | EGGGWGVGSEVG | 0.694 ± 0.035
10 | PPLPPRPQTHLH | 0.728 ± 0.074
11 | VVGGAGRRYVEG | 0.702 ± 0.036
12 | NTSLLMAWPIPP | 0.556 ± 0.032
13 | FSWDRIKQCSSV | 0.7094 ± 0.0035
14 | GGVPRNRAQIGV | 0.758 ± 0.082
15 | WGVGVCSRVLRS | 0.674 ± 0.026
16 | SLLELSPPRSPP | 0.681 ± 0.03
17 | EQHTKNDQNNEP | 0.664 ± 0.028
18 | RGGAGGRLGCGG | 0.71 ± 0.071
19 | PPLPHPPLLAPP | 0.748 ± 0.15
20 | SPSPAPPTRSPS | 0.696 ± 0.023
21 | GGGRGGARVGQL | 0.661 ± 0.013
22 | VVGYAIRVRSGL | 0.593 ± 0.018
23 | GAGGGGNLGWLR | 0.6788 ± 0.0063
24 | KKKNTRKTTNIK | 0.708 ± 0.026
25 | PSWEPLPLPAVL | 0.707 ± 0.018

Row | Sequence | protein stability index
26 | PLLTPPPVLHHP | 0.741 ± 0.035
27 | YVQFISFAGTRP | 0.724 ± 0.025
28 | RPPDPPLHHNLP | 0.687 ± 0.014
29 | EVCGSGCGCGLC | 0.74 ± 0.11
30 | PSFLPLWFSRLR | 0.731 ± 0.093
31 | TLSHPAHLKPMR | 0.669 ± 0.051
32 | SPTSLPLSMPTR | 0.724 ± 0.1
33 | PPPLLSPAFFLP | 0.727 ± 0.053
34 | LGSSGCVLVGWG | 0.683 ± 0.0084
35 | TYFMSAFWPPGV | 0.631 ± 0.03
36 | NSRLLPWRHELR | 0.784 ± 0.1
37 | VGYWGMGFWFSG | 0.65 ± 0.03
38 | IQKNSGHPMKEA | 0.711 ± 0.023
39 | HPLVASRLSPFP | 0.761 ± 0.07
40 | ESVCFRPKCVCK | 0.5929 ± 0.0046
41 | GWWCGGGGAWSG | 0.719 ± 0.041
42 | SWMDRGGAYSGI | 0.731 ± 0.11
43 | GLRIRFSNSYVG | 0.688 ± 0.057
44 | LRSMLRCPSPLS | 0.759 ± 0.031
45 | GIRAVRYFNSCC | 0.598 ± 0.011
46 | AFYERLQEWIRA | 0.613 ± 0.014
47 | PLRLPPAPPFPL | 0.824 ± 0.075
48 | EGCGLQRGMGVL | 0.681 ± 0.0096
49 | SIGACGEVTFGC | 0.7083 ± 0.00078
50 | SHIPRNLSPFSS | 0.754 ± 0.056

Row | Sequence | protein stability index
51 | RVPLFPIKMGLG | 0.591 ± 0.035
52 | RRKYIFRMIYPR | 0.658 ± 0.026
53 | TPWGPGAAAAPP | 0.684 ± 0.043
54 | SGAGVNWGVGWG | 0.714 ± 0.029
55 | GAEPTPYVAEAI | 0.701 ± 0.026
56 | LITCHSHKPQQI | 0.704 ± 0.098
57 | AHGAGCGGRRVA | 0.726 ± 0.023
58 | PHSSFSLAPPIP | 0.696 ± 0.01
59 | RSSDFASDRGWT | 0.67 ± 0.028
60 | SHASTPSSRVIP | 0.716 ± 0.01
61 | CIRSSSTEPCLP | 0.685 ± 0.00086
62 | PPPPRPSPPPPS | 0.694 ± 0.028
63 | GTLYLRVTSKEK | 0.717 ± 0.044
64 | VKPIFTEYGRYK | 0.626 ± 0.002
65 | TYSTDRPGLHTW | 0.698 ± 0.074
66 | YTGVCEWRANVH | 0.689 ± 0.0096
67 | RPFVRDFGCAVW | 0.711 ± 0.023
68 | SVGGGRWRYGGR | 0.662 ± 0.04
69 | NKKKPKRTGKTQ | 0.674 ± 0.025
70 | SFNHAKPPLHPA | 0.683 ± 0.03
71 | GYDLSASRALLA | 0.65 ± 0.019
72 | LRAWPILPSRVL | 0.641 ± 0.014
73 | CPCRCLGFRWCF | 0.631 ± 0.076
74 | DVGRDVCEFRDR | 0.677 ± 0.045
75 | QLRRPPPPLPLP | 0.714 ± 0.0072

Row | Sequence | protein stability index
76 | VALTYRSAGKWA | 0.693 ± 0.058
77 | MKIKIEINKNKT | 0.654 ± 0.032
78 | PPLTRRSTLMSY | 0.591 ± 0.042
79 | FIQFGYVSSVIQ | 0.722 ± 0.031
80 | GGRGLGVVGEVL | 0.72 ± 0.046
81 | PPPSHYHSQGHN | 0.686 ± 0.016
82 | HPPPHPPFPPRF | 0.73 ± 0.016
83 | KFMKEITIDGLT | 0.709 ± 0.055
84 | IGARLMVGASRK | 0.775 ± 0.16
85 | ASRWVLLGGGGV | 0.693 ± 0.03
86 | SLAPPVPPPPLH | 0.67 ± 0.026
87 | FGVVLAGAGWGG | 0.675 ± 0.095
88 | PHVLAALTSYTP | 0.68783 ± 0.00064
89 | APPPLPPTPPPL | 0.7017 ± 0.0031
90 | RPNTKKHKIGER | 0.719 ± 0.03
91 | CWCGLGVWAFGV | 0.715 ± 0.039
92 | GPHGNPGLAPLA | 0.7282 ± 0.0021
93 | AGGSVCRESLEV | 0.694 ± 0.064
94 | TPSSDFKPTGVR | 0.654 ± 0.054
95 | VHSPLVHILSCS | 0.582 ± 0.012
96 | ISMASRAGILRG | 0.686 ± 0.049
97 | MLRRSGEGVRLE | 0.7218 ± 0.0045
98 | SFCHWRFSFPKC | 0.666 ± 0.04
99 | LLCGVLGLAWVW | 0.553 ± 0.029
100 | WLFVALRGRFEF | 0.59 ± 0.042

Row | Sequence | protein stability index
101 | APPALPPLSPFP | 0.705 ± 0.091
102 | CLAIWSNLNECH | 0.715 ± 0.034
103 | AAEPGGGTALRG | 0.637 ± 0.029
104 | DAPSPPLTGVSR | 0.645 ± 0.01
105 | SQGSCCTALDVA | 0.675 ± 0.046
106 | AVGGDGGAWVGP | 0.7231 ± 0.0022
107 | YFTNSVPVGTVA | 0.501 ± 0.0076
108 | PPPSPPLPIPPS | 0.697 ± 0.022
109 | LIFACIYFSGVV | 0.644 ± 0.047
110 | PPPPPPYHPTPP | 0.6685 ± 0.0011
111 | QSHNDIRDGPPR | 0.679 ± 0.021
112 | RDFLLLASHLRF | 0.764 ± 0.056
113 | VVFASNGSYVLG | 0.672 ± 0.041
114 | PHHRRVVRPPTA | 0.704 ± 0.013
115 | LSTCIMFRSCGG | 0.693 ± 0.041
116 | SPPPSPPTVLPI | 0.683 ± 0.022
117 | GIRFGLVCYPNF | 0.6537 ± 0.0025
118 | ISLTHAPKTGFY | 0.695 ± 0.008
119 | LPPAAPPPPIPA | 0.599 ± 0.0079
120 | WLKVRINFYKRK | 0.52 ± 0.038
121 | CFLSAVFISSSL | 0.601 ± 0.045
122 | LLQFRATFPTTV | 0.721 ± 0.036
123 | LIPLSLPSCPLS | 0.69 ± 0.085
124 | VVLWSTGRVLYG | 0.699 ± 0.025
125 | LFPLSSPFPSTS | 0.766 ± 0.23

Row | Sequence | protein stability index
126 | HPSLSDLIVLCR | 0.51 ± 0.01
127 | IRSLKTSPLMRG | 0.704 ± 0.043
128 | LNIVVTQNKNKK | 0.73 ± 0.035
129 | RPPPPTAPPPSR | 0.719 ± 0.043
130 | KLGRIWNFTLSA | 0.6284 ± 0.001
131 | VEPTSDNGVVRR | 0.662 ± 0.025
132 | KKKKKKKKKPEK | 0.708 ± 0.022
133 | RFPLLPLLRPPP | 0.6494 ± 0.0031
134 | YGSQAYAIDSKP | 0.6369 ± 0.0009
135 | PPPPRPPPVPPF | 0.61 ± 0.048
136 | RCQYRRTMSITI | 0.635 ± 0.034
137 | FCLGMRKHSSPL | 0.731 ± 0.02
138 | KITEKLGSPKTF | 0.654 ± 0.086
139 | SRDMGYFFPKLK | 0.655 ± 0.073
140 | LWVGVGRWLRGR | 0.744 ± 0.014
141 | LPPLPPRVLFNL | 0.5604 ± 0.00084
142 | RAKGTGRRLGVA | 0.676 ± 0.013
143 | SGKGRRLVLGSS | 0.6895 ± 0.0039
144 | PGLGISHARCCF | 0.695 ± 0.016
145 | DRLGDCRKPRPF | 0.657 ± 0.099
146 | LPPPVSPLVCLL | 0.752 ± 0.047
